The target of the assay is purified hGM-CSF (Biomol #2514, expressed in E. coli) (human) (UniProt P04141). As to the kind of experiment: cell-based or functional assay.
purified hGM-CSF (Biomol #2514, expressed in E. coli) (human), sequence (P04141 18-144 limits assumed): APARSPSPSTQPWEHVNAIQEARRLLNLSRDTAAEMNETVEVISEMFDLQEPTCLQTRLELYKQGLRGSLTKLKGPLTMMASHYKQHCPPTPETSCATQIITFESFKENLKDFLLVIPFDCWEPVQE

As for “rat-anti-human-GM-CSF IgG2a BVD2-21C11 (BD #554503) (antibody)”, the TF-1 assay hGM-CSF (E. coli) [pM], GM-CSF final concentration 1.0 ng/ml came to 8260 pM.
